Assay results: the supplement of paper PMC10567573

B1: PPEF2 (parent)
chain: FIPSSHNDRDFLTRIFTEDRFAQD

Variants of: B1
Assay: protein stability index of a GFP-peptide fusion (GPS, HEK-293T) (PSI 1-6); higher = more stable
Settings: c terminus: a fixed tail appended
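Further: lentivirally expressed fusions sorted by FACS into six bins by GFP to DsRed ratio, PSI derived from sequencing read proportions per bin multiplied by bin number.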

| Variant | protein stability index |
| --- | --- |
| FIPSSHNDRDFLTRYFTEDRFAQD [I15Y] | 2.22 |
| FIPSSHNDRDFLTRMFTEDRFAQD [I15M] | 2.24 |
| FIPSSHNDRDFLTRNFTEDRFAQD [I15N] | 1.83 |
| FIPSSHNDRDFLTRQFTEDRFAQD [I15Q] | 2.19 |
| FIPSSHNDRDFLTRSFTEDRFAQD [I15S] | 1.84 |
| FIPSSHNDRDFLTRFFTEDRFAQD [I15F] | 2.2 |
| FIPSSHNDRDFLTRPFTEDRFAQD [I15P] | 1.91 |
| FIPSSHNDRDFLTRHFTEDRFAQD [I15H] | 2.4 |
| FIPSSHNDRDFLTRWFTEDRFAQD [I15W] | 2.66 |
| FIPSSHNDRDFLTRGFTEDRFAQD [I15G] | 1.98 |
| FIPSSHNDRDFLTRDFTEDRFAQD [I15D] | 2.01 |
| FIPSSHNDRDFLTRLFTEDRFAQD [I15L] | 1.56 |
| FIPSSHNDRDFLTRAFTEDRFAQD [I15A] | 1.61 |
| FIPSSHNDRDFLTRCFTEDRFAQD [I15C] | 3.07 |
| FIPSSHNDRDFLTREFTEDRFAQD [I15E] | 2.44 |
| FIPSSHNDRDFLTRTFTEDRFAQD [I15T] | 2.45 |
| FIPSSHNDRDFLTRKFTEDRFAQD [I15K] | 2.77 |
| FIPSSHNDRDFLTRRFTEDRFAQD [I15R] | 2.9 |
| FIPSSHNDRDFLHRIFTEDRFAQD [T13H] | 1.6 |
| FIPSSHNDRDFLYRIFTEDRFAQD [T13Y] | 2.65 |
| FIPSSHNDRDFLVRIFTEDRFAQD [T13V] | 1.8 |
| FIPSSHNDRDFLDRIFTEDRFAQD [T13D] | 1.83 |
| FIPSSHNDRDFLQRIFTEDRFAQD [T13Q] | 1.55 |
| FIPSSHNDRDFLRRIFTEDRFAQD [T13R] | 1.91 |

| Variant | protein stability index |
| --- | --- |
| FIPSSHNDRDFLLRIFTEDRFAQD [T13L] | 3.13 |
| FIPSSHNDRDFLPRIFTEDRFAQD [T13P] | 1.82 |
| FIPSSHNDRDFLIRIFTEDRFAQD [T13I] | 2.21 |
| FIPSSHNDRDFLKRIFTEDRFAQD [T13K] | 1.38 |
| FIPSSHNDRDFLFRIFTEDRFAQD [T13F] | 1.5 |
| FIPSSHNDRDFLNRIFTEDRFAQD [T13N] | 1.7 |
| FIPSSHNDRDFLSRIFTEDRFAQD [T13S] | 1.83 |
| FIPSSHNDRDFLERIFTEDRFAQD [T13E] | 2 |
| FIPSSHNDRDFLGRIFTEDRFAQD [T13G] | 2.42 |
| FIPSSHNDRDFLTRIFTFDRFAQD [E18F] | 2.52 |
| FIPSSHNDRDFLTRIFTADRFAQD [E18A] | 2.64 |
| FIPSSHNDRDFLTRIFTGDRFAQD [E18G] | 1.48 |
| FIPSSHNDRDFLTRIFTDDRFAQD [E18D] | 2.37 |
| FIPSSHNDRDFLTRIFTCDRFAQD [E18C] | 2.79 |
| FIPSSHNDRDFLTRIFLEDRFAQD [T17L] | 2.65 |
| FIPSSHNDRDFLTRIFYEDRFAQD [T17Y] | 2.08 |
| FIPSSHNDRDFLTRIFSEDRFAQD [T17S] | 2.05 |
| FIPSSHNDRDFLTRIFPEDRFAQD [T17P] | 1.97 |
| FIPSSHNDRDFLTRIFHEDRFAQD [T17H] | 1.54 |
| FIPSSHNDRDFLTRIFEEDRFAQD [T17E] | 2.19 |
| FIPSSHNDRDFLTRIFKEDRFAQD [T17K] | 3.08 |
| FIPSSHNDRDFLTRIFWEDRFAQD [T17W] | 2.79 |
| FIPSSHNDRDFLTRIFNEDRFAQD [T17N] | 1.68 |
| FIPSSHNDRDFLTRIFGEDRFAQD [T17G] | 2.7 |

| Variant | protein stability index |
| --- | --- |
| FIPSSHNDRDFLTRIFREDRFAQD [T17R] | 1.73 |
| FIPSSHNDRDFLTRIFIEDRFAQD [T17I] | 2.08 |
| FIPSSHNDRDFLTRIFAEDRFAQD [T17A] | 1.71 |
| FIPSSHNDRDFLTRIFFEDRFAQD [T17F] | 1.87 |
| FIPSSHNDRDFLTRIFVEDRFAQD [T17V] | 1.85 |
| FIPSSHNDRDFLTRIFDEDRFAQD [T17D] | 1.95 |
| FIPSSHNDRDFLTRIFQEDRFAQD [T17Q] | 1.79 |
| FIPSSHNDRDFLTRIFCEDRFAQD [T17C] | 3.8 |
| FIPSSHNDRDFLTRIFMEDRFAQD [T17M] | 2.54 |
| FIPSSHNDRDFLTCIFTEDRFAQD [R14C] | 1.78 |
| FIPSSHNDRDFLTSIFTEDRFAQD [R14S] | 3.48 |
| FIPSSHNDRDFLTAIFTEDRFAQD [R14A] | 1.58 |
| FIPSSHNDRDFLTVIFTEDRFAQD [R14V] | 3.04 |
| FIPSSHNDRDFLTGIFTEDRFAQD [R14G] | 1.95 |
| FIPSSHNDRDFLTYIFTEDRFAQD [R14Y] | 1.7 |
| FIPSSHNDRDFLTEIFTEDRFAQD [R14E] | 2.34 |
| FIPSSHNDRDFLTNIFTEDRFAQD [R14N] | 2.12 |
| FIPSSHNDRDFLTQIFTEDRFAQD [R14Q] | 1.93 |
| FIPSSHNDRDFLTTIFTEDRFAQD [R14T] | 2.36 |
| FIPSSHNDRDFLTWIFTEDRFAQD [R14W] | 2.5 |
| FIPSSHNDRDFLTKIFTEDRFAQD [R14K] | 1.55 |
| FIPSSHNDRDFLTIIFTEDRFAQD [R14I] | 2.61 |
| FIPSSHNDRDFLTHIFTEDRFAQD [R14H] | 2.04 |
| FIPSSHNDRDFLTMIFTEDRFAQD [R14M] | 2.55 |

| Variant | protein stability index |
| --- | --- |
| FIPSSHNDRDFLTFIFTEDRFAQD [R14F] | 2.7 |
| FIPSSHNDRDFLTPIFTEDRFAQD [R14P] | 2.81 |
| FIPSSHNDRDFLTLIFTEDRFAQD [R14L] | 2 |
| FIPSSHNDRDFLTDIFTEDRFAQD [R14D] | 2.5 |
| FIPSSHNDRDFLTRIQTEDRFAQD [F16Q] | 2.06 |
| FIPSSHNDRDFLTRISTEDRFAQD [F16S] | 1.72 |
| FIPSSHNDRDFLTRIETEDRFAQD [F16E] | 2.02 |
| FIPSSHNDRDFLTRINTEDRFAQD [F16N] | 2.12 |
| FIPSSHNDRDFLTRIATEDRFAQD [F16A] | 1.76 |
| FIPSSHNDRDFLTRIVTEDRFAQD [F16V] | 2.6 |
| FIPSSHNDRDFLTRIMTEDRFAQD [F16M] | 1.84 |
| FIPSSHNDRDFLTRIDTEDRFAQD [F16D] | 2.18 |
| FIPSSHNDRDFLTRIITEDRFAQD [F16I] | 1.83 |
| FIPSSHNDRDFLTRIKTEDRFAQD [F16K] | 1.47 |
| FIPSSHNDRDFLTRICTEDRFAQD [F16C] | 2.48 |
| FIPSSHNDRDFLTRIHTEDRFAQD [F16H] | 1.69 |
| FIPSSHNDRDFLTRILTEDRFAQD [F16L] | 1.91 |
| FIPSSHNDRDFLTRITTEDRFAQD [F16T] | 2.59 |
| FIPSSHNDRDFLTRIGTEDRFAQD [F16G] | 1.92 |
| FIPSSHNDRDFLTRIRTEDRFAQD [F16R] | 1.88 |
| FIPSSHNDRDFLTRIYTEDRFAQD [F16Y] | 1.21 |
| FIPSSHNDRDFLTRIPTEDRFAQD [F16P] | 2.96 |
